Test results taken from the DeepSol protein solubility set.

Test: soluble on expression in E. coli; label from the status in PepcDB or PDB records

Which “soluble on expression in E. coli” value does the source give for “MTNDKMLARIAALLRQAEGTDNPHEADAFMSTAQRLATAASIDLAVARSHAGNRSPAQAPTQRTITIGAAGTRGLRTYVQLFVLIAAANDVRCDVASNSTFVYAYGFAEDIDTSHALYASLVVQMVRASDAYLASGAHRPTPTITARLNFQLAFGARVGQRLADAREQTRQEATKDRDRPPGTAIALRDKDIELHEYYRRSSKARGAWRASRATAGYSSAARRAGDRAGRQARLGNNPELPGARAALGR” here?
The value was “soluble”.

Which “soluble on expression in E. coli” value does the source give for “MTNGQSPAGGVQSVERAFDILEIMASAGGSIGVSELADLAGLPLPTIHRLIRTLMNRGYVRQLPTRRYALGPKLIRLGESATQLIGAWSRPHLSELVRGTGETANMAVLDGTMAVYVAQVPSEHAMRMFTEVGRRVYPHCTGVGKAILMQLSNDAVRSLVGRTGMTTYTENSLTDPDMLIADLELSRNRGFAIDEGEQEIGVRCFSVPVPNAPTPTAISVSGPAARVTLESADHIVPLLKRVAKELGTEFDKNAAL” here?
The value was “not soluble”.

With “MTNIIKIRASVFIPMSWTEAKMDMETGQVIQFEGDSREFTPHAVNTMRSRVEQEVVVDFYKQEVFSYANTGITTEKVISPDGSVNKRTGKASTENIVCTDIVWNSGGVQFKMSASASNPLNVYAPPVDYVLNVCVKKDGSIDVQGEHDGFPCFEFYKQVDFGPFEKIYTHDFRETGDTAAALGGNMDYSFTKRL” as the sequence, how does the “soluble on expression in E. coli” value read?
Its value is “soluble”.

Which “soluble on expression in E. coli” value does the source give for “MTNIRVAIVGYGNLGRSVEKLIAKQPDMDLVGIFSRRATLDTKTPVFDVADVDKHADDVDVLFLCMGSATDIPEQAPKFAQFACTVDTYDNHRDIPRHRQVMNEAATAAGNVALVSTGWDPGMFSINRVYAAAVLAEHQQHTFWGPGLSQGHSDALRRIPGVQKAVQYTLPSEDALEKARRGEAGDLTGKQTHKRQCFVVADAADHERIENDIRTMPDYFVGYEVEVNFIDEATFDSEHTGMPHGGHVITTGDTGGFNHTVEYILKLDRNPDFTASSQIAFGRAAHRMKQQGQSGAFTVLEVAPYLLSPENLDDLIARDV” here?
Its value is “soluble”.

Which “soluble on expression in E. coli” value does the source give for “MTNLTNYHSHCLYCDGRANMEDFIRFAISEGFSSYGISSHAPLPFSTAWTMEWDRMDDYLSEFARLKEKYADKIELAIGLEIDYLNEESHPAIPRFQELPLDYRIGSVHMLYSPQGKVVDIDTPADIFRQLIDAHFEGDLDYVVHLYYKNLLRMVELGGFDILGHADKMHYNASCYRPGLLDEPWYDALVRDYFAEIARHGYIVEINTKSYHDLGTFYPNERYFPLLKELGIRVQVNSDAHYPERINNSRAEALAALKKVGFDTVVEWHGGQWKDMPLLQ” here?
Its value is “not soluble”.

For “MTNNSGNKVQDIMTKNVATISPNQTVQEAAQIMSQKNIGALPVVENGQVKGMITDRDITLRVSSQGKDPSTVKVAEVMTNQVVTGTPNMSVQEAANVMAQHQVRRLPIVENNQLQGIVALGDIATNSASNEAAEQALTNISEPSQPQG”, which “soluble on expression in E. coli” value is on record?
Its value is “soluble”.

For “MTNRYVVIFTVGPVQSFIASARKTEDFWSGSYILSHLVREAIKRFYQFDANCEMIYPLVTEKELRSPSQRDVHIASIPNRLTVIMEGTEEEVCGWLREAEQDVCNVFLDFCFQAVRRVFPHLTDHEQELLERMVEQQVRSFLEIYWVAEPYEPSMSFREVRERAERRLGALKNEKHYIPVSQQGLVCSVCKEREALRLEEIGEFDHYGEIKKKTMSLWQRRAVKFQGTGGDEEDDRRAGRIKDNEFLCGICLGKRAARDYFADLFGTSFPSFPSVLDIGQGDYYAVLLMDGDDMGKWFSGERKDEYSRTSQKLARFAKETVPWIVQERCKGKLVYAGGDDVLAFVPVETALKAAEMLRLAFADERQGLGSGATASFGVVIAHKKAPLQHVLNAARALEQKAKRYYNDKTAQRKDALALAVHTRSGEISEAVLPWIVGEKMVSKLLEEWLGLLKTSLSPNFIFHFASAFAPLLHEKDCPKWENRDMLATELRRLLRRSVKEGSCLDAQDIARYTSTLLVLHEAVRSSYDFLHLLKMLTFFKRSKGRG”, which “soluble on expression in E. coli” value is on record?
The value was “not soluble”.

With “MTNWKPLVSVITPSYNARDYIEDTVHSVLDQSHPHWEMIIVDDCSTDGTRDILQQYEKIDERIHVVYLEENSGAAVARNKALERAQGRYVAFLDSDDKWKKDKLEKQLEFMMERSCAFSFTGYSLMAQDGTPLDKFIHAPESLTYDDALKNTIIGCLTVMIDREQTGQIQMPNIRTRQDLATWLSLLKKGFTAYGMNECLAEYRLVNNSISSNKWKAAKKTWFVYREIERLHFMKATWCFVQYAKNAVKKRL” as the sequence, how does the “soluble on expression in E. coli” value read?
The value was “soluble”.

With “MTPLRVFRKTTPLVNTIRLSLLPLAGLSFSAFAAQVNIAPGSLDKALNQYAAHSGFTLSVDASLTRGKQSNGLHGDYDVESGLQQLLDGSGLQVKPLGNNSWTLEPAPAPKEDALTVVGDWLGDARENDVFEHAGARDVIRREDFAKTGATTMREVLNRIPGVSAPENNGTGSHDLAMNFGIRGLNPRLASRSTVLMDGIPVPFAPYGQPQLSLAPVSLGNMDAIDVVRGGGAVRYGPQSVGGVVNFVTRAIPQDFGIEAGVEGQLSPTSSQNNPKETHNLMVGGTADNGFGTALLYSGTRGSDWREHSATRIDDLMLKSKYAPDEVHTFNSLLQYYDGEADMPGGLSRADYDADRWQSTRPYDRFWGRRKLASLGYQFQPDSQHKFNIQGFYTQTLRSGYLEQGKRITLSPRNYWVRGIEPRYSQIFMIGPSAHEVGVGYRYLNESTHEMRYYTATSSGQLPSGSSPYDRDTRSGTEAHAWYLDDKIDIGNWTITPGMRFEHIESYQNNAITGTHEEVSYNAPLPALNVLYHLTDSWNLYANTEGSFGTVQYSQIGKAVQSGNVEPEKARTWELGTRYDDGALTAEMGLFLINFNNQYDSNQTNDTVTARGKTRHTGLETQARYDLGTLTPTLDNVSIYASYAYVNAEIREKGDTYGNLVPFSPKHKGTLGVDYKPGNWTFNLNSDFQSSQFADNANTVKESADGSTGRIPGFMLWGARVAYDFGPQMADLNLAFGVKNIFDQDYFIRSYDDNNKGIYAGQPRTLYMQGSLKF” as the sequence, how does the “soluble on expression in E. coli” value read?
Its value is “soluble”.

Which “soluble on expression in E. coli” value does the source give for “MTPPPADDTSGKSGRRTELLDIAATLFAERGLRATTVRDIADAAGILSGSLYHHFDSKESMVDEILRGFLDDLFGKYREIVASGLDSRATLEALVTTSYEAIDASHSAVAIYQDEVKHLVANERFTYLSELNTEFRELWMGVLEAGVKDGSFRSDIDVELAFRFLRDTAWVAVRWYRPGGSVTVDTVAKQYLSIVLDGLASPHN” here?
Its value is “soluble”.

For “MTPPRVLSIAGSDSGGGAGIQADMRTMALLGVHACVAVTAVTVQNTLGVKDIHEVPNDVVAGQIEAVVTDIGVQAAKTGMLASSRIVATVAATWRRLELSVPLVVDPVCASMHGDPLLAPSALDSLRGQLFPLATLLTPNLDEARLLVDIEVVDAESQRAAAKALHALGPQWVLVKGGHLRSSDGSCDLLYDGVSCYQFDAQRLPTGDDHGGGDTLATAIAAALAHGFTVPDAVDFGKRWVTECLRAAYPLGRGHGPVSPLFRLS”, which “soluble on expression in E. coli” value is on record?
Its value is “not soluble”.

For “MTPWLTVVGIGEDGFSGLGKQARRALLGAGRVFGSPRQLALLPRCVTAEQLAWPSPFSLAPVLALRGEPVCVLASGDPMFYGVGASLARQVPAAEMRVLSLPSSCALAAARLGWPLQDLQVVSLVARPLAALNAHLHSGMRLLVLSNDGDSPAAIAAQLRGQGFGPSRLQVFEHLGGVDERALAGTAQDWPHTGIAALNLVAIECLATPDAPRLHRLAGLPDAAYRHDGQLTKRDVRAITLARLAPQPGELLWDVGAGCGSIGIEWMRAHPACRALAIEADEGRQGLIEHNRDALGVPGLQLVRGKAPAALQGLEQPDAIFIGGGVTRTGVLDLCWASLRPGGRLVANAVTLQSELALAHFREQHGGELTRIHVAHAQPLGAFDTWRQALPITLLEVLKPADA”, which “soluble on expression in E. coli” value is on record?
Its value is “not soluble”.

With “MTQDRPLLAVQEALKKCFPVVEEQQGLWQSALRDCQPLLSSLSNLAEQLQAAQNLRFEDVPALRAFPDLKERLRQPSSSRCETWSAAMWSECFRSMSNTQTQLALMLSCSLQQ” as the sequence, how does the “soluble on expression in E. coli” value read?
Its value is “soluble”.

For “MTQDYRVLLYYQYVPIEDGETFAQKHLADCKELGLKGRILVADEGINGTVSGTIEQTNAYMELMKNDPRFSSTIFKIDEAEQNAFKKMHVRYRPELVNLSLEDDVNPLELTGAYLDPKEFREAMLDENTVVIDARNDYEFDLGHFRGAIRPEIRSFRELPQWIRDNKEQFMEKRVLTYCTGGIRCEKFSGWLVREGFKDVGQLHGGIATYGKDPEVQGDLWDGQMYVFDSRIAVPINQKEHVIVGRDWFDGSPCERYINCGNPECNRQMLASEENEAKYLGACSHECRVHPNNRYIKAHQLSNQEVQERLALLEKDLASLEHHHHHH”, which “soluble on expression in E. coli” value is on record?
Its value is “soluble”.

For “MTQPELTPAQRTEVELLARGRADKSRVLRDLKLPETPEAAHALLLRLGVWDEARTPYADRLRAALNAVELPVPDFDPAEERLDLTHLPTFAIDDEGNQDPDDAVGVEDLGGGLTRLWVHVADVAALVAPDSPLDLEARARGATLYLPDRTIGMLPDELVAKAGLGLHEVSPALSICLDLDPDGNAEAVDVLLTRVKVQRLAYQEAQARLEAGEEPFVTLARLARASRRLREGEGALSIDLPEVRVKADETGASVFPLPKPEMRTVVQECMTLAGWGTAIFADDNEIPLPFATQDYPTREVAGDTLPAMWARRKTLARTRFQPSPGPHHGMGLDLYAQATSPMRRYLDLVVHQQLRAFLAGRDPLSSKVMAAHIAESQMNADATRQAERLSRRHHTLRFIAAQPERVWDAVVVDRRGAQATLLIPDLAFDVQVNTPAAPGTALQVQFADIDLPQMRVRARSVLEHHHHHH”, which “soluble on expression in E. coli” value is on record?
Its value is “soluble”.

Which “soluble on expression in E. coli” value does the source give for “MTQPLRQYREKRDFRATAEPAGAARRPRAAARASEGLSFVIQRHQARRLHYDFRLEIDGVLVSWAVPKGPSRDPSVKRLAVHVEDHPLEYGGFSGDIPKGQYGAGHVDIWDSGVWIPRGDPRQGLRRGKLHFALRGRRLAGDWVLVRMSGEQDQWLLRKEDDEALEHHHHHH” here?
Its value is “soluble”.

For “MTQQHPHLLEPELGEFLTALKNTPSRLTARTAAWLCIWTASRPGMVRLAEWKEFDLDKATWTTPAAKMKMRRDFVCPLPHQAIAALKELHCLTGRSRWLFPGVGAKNPTISENTINKVFATIGYKGRLVGHGTRHTASTLLREHGWPKEHVEAQLAHKEEGLEHHHHHH”, which “soluble on expression in E. coli” value is on record?
The value was “not soluble”.

For “MTQTQPVGTLRLTIDDQGPQGQSRAVEQFHQGALRVIRPHYLDDSGQVCYTIIAIGGGYLGGDVYEQQFTIKDNAKALITTQSATKIYRTPQGPATQHTEINVGENAVLEYLADQTIAYREATYHQFTKVALHPSATFVMSEQITPGWHPDGKHFAYDEMRLHTEITDSTTGRLVLLDNLLLRPDSREGSFGWTEQYTHSGQMIVMGEGVDKQLVAELNEQLAAHPDVYGAVNFLSAPGTLLRGFIARTLSNRTEELINLHEHIASLLRGRWRGQEPVNLRKYLEHHHHHH”, which “soluble on expression in E. coli” value is on record?
The value was “not soluble”.

For “MTREIIPILPEAPVETARSGNALPLLREIAEHLHHLLETGEASTIDLSALPLTPGDLEWLRAELGGGEVSVTLHADGASTLDETAFPGVWWIIHRNAQGAVTTQFIEVAFVPELVKSPRADVAAARAALVLRMADL”, which “soluble on expression in E. coli” value is on record?
The value was “soluble”.

With “MTRMKYLVAAATLSLFLAGCSGSKEEVPDNPPNEIYATAQQKLQDGNWKQAITQLEALDNRYPFGPYSQQVQLDLIYAYYKNADLPLAQAAIDRFMRLNPTHPNIDYVMYMRGLTNMALDDSALQGFFGVDRSDRDPQHARAAFNDFSKLVRSYPNSQYTTDATKRLVFLKDRLAKYEYSVAEYYTARGAWVAVVNRVEGMLRNYPDTQATRDALPLMENAYRQMQLNAQADKVAKIIAANSKNT” as the sequence, how does the “soluble on expression in E. coli” value read?
Its value is “not soluble”.

For “MTRPFNRVHLIVMDSVGIGEAPDAADFKDEGSHTLRHTLEGFDQTLPNLEKLGLGNIDKLPVVNAVEQPEAYYTKLSEASVGKDTMTGHWEIMGLNIMQPFKVYPNGFPEELIQQIEEMTGRKVVANKPASGTQIIDEWGEHQMKTGDLIVYTSADPVLQIAAHEDIIPLEELYDICEKVRELTKDPKYLIGRIIARPYVGEPGNFTRTSNRHDYALKPFGKTVLDHLKDGGYDVIAIGKINDIYDGEGVTEAVRTKSNMDGMDQLMKIVKKDFTGISFLNLVDFDALYGHRRDKPGYAQAIKDFDDRLPELFSNLKEDDLVIITADHGNDPTAPGTDHTREYIPVIMYSPKFKGGHALESDTTFSSIGATIADNFNVTLPEFGKSYLKELK”, which “soluble on expression in E. coli” value is on record?
Its value is “not soluble”.
